B1: HDAC4 dominant negative variants (H802K, H803L): HDAC4 variant with H802K and H803L mutations, amino acid sequence SEQ ID NO:4, expressed from plasmid (protein)
chain: MSSQSHPDGLSGRDQPVELLNPARVNHMPSTVDVATALPLQVAPSAVPMDLRLDHQFSLPVAEPALREQQLQQELLALKQKQQIQRQILIAEFQRQHEQLSRQHEAQLHEHIKQQQEMLAMKHQQELLEHQRKLERHRQEQELEKQHREQKLQQLKNKEKGKESAVASTEVKMKLQEFVLNKKKALAHRNLNHCISSDPRYWYGKTQHSSLDQSSPPQSGVSTSYNHPVLGMYDAKDDFPLRKTASEPNLKLRSRLKQKVAERRSSPLLRRKDGPVVTALKKRPLDVTDSACSSAPGSGPSSPNNSSGSVSAENGIAPAVPSIPAETSLAHRLVAREGSAAPLPLYTSPSLPNITLGLPATGPSAGTAGQQDTERLTLPALQQRLSLFPGTHLTPYLSTSPLERDGGAAHSPLLQHMVLLEQPPAQAPLVTGLGALPLHAQSLVGADRVSPSIHKLRQHRPLGRTQSAPLPQNAQALQHLVIQQQHQQFLEKHKQQFQQQQLQMNKIIPKPSEPARQPESHPEETEEELREHQALLDEPYLDRLPGQKEAHAQAGVQVKQEPIESDEEEAEPPREVEPGQRQPSEQELLFRQQALLLEQQRIHQLRNYQASMEAAGIPVSFGGHRPLSRAQSSPASATFPVSVQEPPTKPRFTTGLVYDTLMLKHQCTCGSSSSHPEHAGRIQSIWSRLQETGLRGKCECIRGRKATLEELQTVHSEAHTLLYGTNPLNRQKLDSKKLLGSLASVFVRLPCGGVGVDSDTIWNEVHSAGAARLAVGCVVELVFKVATGELKNGFAVVRPPGKLAEESTPMGFCYFNSVAVAAKLLQQRLSVSKILIVDWDVHHGNGTQQAFYSDPSVLYMSLHRYDDGNFFPGSGAPDEVGTGPGVGFNVNMAFTGGLDPPMGDAEYLAAFRTVVMPIASEFAPDVVLVSSGFDAVEGHPTPLGGYNLSARCFGYLTKQLMGLAGGRIVLALEGGHDLTAICDASEACVSALLGNELDPLPEKVLQQRPNANAVRSMEKVMEIHSKYWRCLQRTTSTAGRSLIEAQTCENEEAETVTAMASLSVGVKPAEKRPDEEPMEEEPPL
modifications: Dominant negative mutant (H802K, H803L) of human histone deacetylase-4 (HDAC4) gene
B2: GAL4-N-CoR (RD3) fusion protein (pBIND-N-CoR(RD3)) (other, not shown: large carriers)
chain: EVLQPAPHQVITNLPEGVRLPTTRPTRPPPPLIPSSKTTVASEKPSFIMGGSISQGTPGTYLTSHNQASYTQETPKPSVGSISLGLPRQQESAKSATLPYIKQEEFSPRSQNSQPEGLLVRAQHEGVVRGTAGAIQEGSITRGTPTSKISVESIPSLRGSITQGTPALPQTGIPTEALVKGSISRMPIEDSSPEKGREEAASKGHVIYEGKSGHILSYDNIKNAREGTRSPRTAHEISLKRSYESVEGNIKQGMSMRESPVSAPLEGLICRALPRGSPHSDLKERTVLSGSIMQGTPRATTESFEDGLKYPKQIKRESPPIRAFEGAITKGKPYDGITTIKEMGRSIHEIPRQDILTQESRKTPEVVQSTRPIIEGSISQGTPIKFDNNSGQSAIKHNVKSLITGPSKLSRGMPPLEIVPENIKVVERGKYEDVKAGETVRSRHTSVVSSGPSVLRSTLHEAPKAQLSPGIYDDTSARRTPVSYQN
notes: The cloned fragment carried the variation L1014V (numbered on full-length N-CoR); also called pBND-N-CoR (RD3)

Experiments:
[1] = tested on: IL-2 transcription (human IL-2 promoter); assay: IL-2 reporter gene assay in Jurkat cells; type: cell-based
Description: To 1 μg of the plasmid pGL3 IL2 Pro43, which has a human IL-2 promoter sequence (the −674 to +54 region in the vicinity of the transcription initiation site) upstream of the firefly luciferase gene, and 6 μg of pRL-TK (Promega), the plasmids for the expression of wild-type HDAC4 or each of HDAC4 dominant negative variants (H802K, H803L, H863L) prepared in Example 3 was mixed in various ratios (1, 3 and 10 μg), and 1×10^7 Jurkat cells (ATCC, TIB-152) were transformed by the electroporation method (BIO-RAD, Gene Pulser II, voltage 300 V, charge 975 μF, 400 μL).
After transformation, 2.5 mL of RPMI 1640 containing 10% FBS (MOREGATE) (10% FBS RPMI 1640) was added, and this mixture was dispensed to a 96-well white plate in a ratio of 50 μL/well. After cultivation under conditions of 37° C., 5% CO2 and saturated humidity for 10 hours, a liquid mixture of Phorbol 12-Myristate 13-Acetate (PMA, SIGMA), Ionomycin (SIGMA) and Anti-CD28 antibody (Pharmingen) in 10% FBS RPMI 1640 was added at 50 μL/well (the final concentrations were 50 ng/mL, 1 μg/mL and 75 ng/mL, respectively) to stimulate the Jurkat cells. After cultivation under conditions of 37° C., 5% CO2 and saturated humidity for 12 hours, luciferase activity in the cells was measured according to the manual of the Bright-Glo Luciferase Assay System (Promega) using a multi-label counter (1420 MULTILABEL COUNTER ARVO SX, WALLAC).
1×10^7 Jurkat cells (ATCC, TIB-152) were transformed with 10 μg of a plasmid for the expression of various HDACs or HDAC variants by the electroporation method (BIO-RAD, Gene Pulser II, voltage 300 V, charge 975 μF, 400 μL). […] After cultivation under conditions of 37° C., 5% CO2 and saturated humidity for 12 hours, luciferase activity in cells were measured according to the manual of the Bright-Glo Luciferase Assay System (Promega), and IL-2 transcriptional activity was measured using a multi-label counter (1420 MULTILABEL COUNTER ARVO SX, WALLAC).
(§1) A mixture of four kinds of HDAC4-targeted siRNA, i.e., siGENE HDAC4 SMARTpool (manufactured by Dharmacon Inc., marketed by B-Bridge international Inc., code number M-003497-00-05), or Non-specific Control Duplex IX (47% GC content) (manufactured by Dharmacon Inc., marketed by B-Bride international Inc., code number D-001206-09-20), and pGL3 IL2 Pro43 were transfected to Jurkat cells by the electroporation method using the same conditions as those mentioned above, and IL-2 transcriptional activity was measured. Likewise, siGENE HDAC4 SMARTpool or Non-specific Control Duplex IX, and pGL3-HSI-IE Pro were transfected to HEL cells, and GATA-1 transcriptional activity was measured. […]

[2] = tested on: histone; assay: HDAC activity with [3H]-labeled acetylated histone as a substrate; type: biochemical, human; conditions: expressed in 293T cells, crudely purified; compared to wild-type HDAC4
Description: 7 μg of a plasmid for the expression of wild-type HDAC4 and HDAC4 dominant negative variants (H802K, H803L, H863L) was transfected to 293T cells by the calcium phosphate method; 48 hours later, whole cell lysate (cells were disrupted in 25 mM Tris, pH 7.4, 150 mM NaCl, 1 mM CaCl2, 1% Triton X-100, and cell debris was removed by centrifugation) was crudely purified using an anti-Flag antibody column (SIGMA, anti-Flag M2-agarose) (washed with TBS, then eluted with 0.1M Glysine-HCl, pH 3.5), and used for the measurement of HDAC activity. The reaction substrate used was a [^3H]-labeled acetylated histone prepared by cultivating Jurkat cells (2×10^8 cells) in 40 mL of an RPMI (SIGMA) medium containing 300 MBq [^3H] sodium acetate (NENTM Life Science Products, Inc.) for 2 hours, disrupting the cells in Lysis buffer, pH 6.5 (10 mM Tris-HCl, 50 mM Sodium Hydrogen sulfate, 1% Triton X-100, 10 mM MgCl2-6H2O, 8.6% Sucrose), washing the cells with Wash buffer (10 mM Tris-HCl, 13 mM EDTA), and then adding 0.4N H2SO4.

[3] = tested on: GATA-1 transcription (human GATA-1 promoter); assay: GATA-1 reporter gene assay in HEL cells; type: cell-based; conditions: 10 μg expression plasmid
Description: Using 15 μg of pGL3-HSI-IE Pro and 10 μg of a plasmid for the expression of various HDACs or HDAC variants, 8.75×10^6 HEL cells (accession number JCRB0062, JCRB) were transformed by the electroporation method (BIO-RAD, Gene Pulser II, voltage 1750 V, charge 10 μF, 365 μL). After transformation, 2 mL of 10% FBS RPMI 1640 was added, and this mixture was dispensed to a 96-well white plate in a ratio of 50 μL/well. After cultivation under conditions of 37° C., 5% CO2 and saturated humidity for 3 hours, 10% FBS RPMI 1640 medium was added at 50 μL/well. After cultivation under conditions of 37° C., 5% CO2 and saturated humidity for 8 hours, luciferase activity in cells were measured according to the manual of the Bright-Glo Luciferase Assay System, and GATA-1 transcriptional activity was measured using a multi-label counter.
as §1, with “measured.” for “measured. Likewise, siGENE HDAC4 SMARTpool or Non-specific Control Duplex IX, and pGL3-HSI-IE Pro were transfected to HEL cells, and GATA-1 transcriptional activity was measured.”

[4] = target: T1, HDAC4 (H863L)-VP16 fusion protein (pACT-HDAC4 (H863L)) (human, UniProt P56524 1-1084); assay: mammalian two-hybrid (CheckMate), pG5-Luc luciferase in Jurkat cells
T1 construct: also called HDAC4 dominant negative variant (H863L)

[5] = target: HDAC4-VP16 fusion protein (pACT-HDAC4) (human, UniProt P56524 1-1084); assay: as above

Row | Molecule | IL-2 transcriptional activity (luciferase) ([1]; Jurkat cells stimulated with PMA, Ionomycin, Anti-CD28 antibody, expression plasmid 1, 3 and 10 μg) | IL-2 transcriptional activity (luciferase) ([1]; Jurkat cells, 10 μg expression plasmid, compared with HDAC1 and HDAC3 variants) | HDAC activity with histone as a substrate [2] | GATA-1 transcriptional activity (luciferase) [3] | binding result [4] | binding result [5]
1 | B1 | IL-2 transcription suppression depending on the expression level | IL-2 transcription suppression was observed | decreased HDAC activity compared to wild-type HDAC4 | GATA-1 transcription suppression was not observed |  | 
2 | B2 |  |  |  |  | no binding | binds
